Where a chain is given by its changes, count along the chain named.
T1: Human IL-5 amino acid sequence with his tag (rhIL-5-his) (human, UniProt P05113 20-134)
T1 sequence: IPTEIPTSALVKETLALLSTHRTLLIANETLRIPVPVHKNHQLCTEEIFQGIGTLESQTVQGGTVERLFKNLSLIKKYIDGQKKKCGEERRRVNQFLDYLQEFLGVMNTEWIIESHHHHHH

B1: h1779-014 (antibody, human IgG1, kappa, V domains shown)
VH: EVQLVQSGAEVKKPGASVKVSCKASGYTFTDYIIHWVKQAPGQGLEWIGYFNPNSGGSNYNENFKRKATMTADKSISTAYLEFSRLRSEDTAVYYCARRIAWDHWYFDFWGQGTMVTVSS
VL: DIQMTQSPSSLSASVGDRVTITCLASEGISNDVAWYQQKPGKSPKLLIYAASRLQDGVPSRFSGSGSGTDFTFTISSLQPEDIATYYCQQGYKTPLTFGQGTKLEIKR
notes: h1779_VH.1D + h1779_VL.1A; IgG1 (YTE) / kappa constant regions
B2: Hu39D10 (antibody, human IgG4 S228P, kappa, V domains shown)
VH: EVQLVESGGGLVQPGGSLRLSCAVSGLSLTSNSVNWIRQAPGKGLEWVGLIWSNGDTDYNSAIKSRFTISRDTSKSTVYLQMNSLRAEDTAVYYCAREYYGYFDYWGQGTLVTVSS
VL: DIQMTQSPSSLSASVGDRVTITCLASEGISSYLAWYQQKPGKAPKLLIYGANSLQTGVPSRFSGSGSATDYTLTISSLQPEDFATYYCQQSYKFPNTFGQGTKVEVKR
B3: h1773-007 (antibody, human IgG1, kappa, V domains shown)
VH: EVQLVESGGGLVQPGGSLKLSCAASGFTISNTYIHWVKQASGKGLEWIGRIDPAVGDTKHGPKFQGRFTISADDSKNTAYLQMNSLKTEDTAVYYCFRYGIYPDHWGQGTLVTVSS
VL: DIQLTQSPSSLSASVGDRVTITCSASSSVNYIYWYQQKPGKSPKPWIYLTATLASGVPSRFSGSGSGTDFTLTISSLQPEDFATYYCQQWNSYPYTFGGGTKVEIKR
B4: h1780-017 (antibody, human IgG1, kappa, V domains shown)
VH: EVQLVQSGAEVKKPGASVKVSCKASGYTFTEYLIHWVRQAPGQGLEWIGYINPYSGGTVYNEKFKSRATLTVDKSISTAYMEFSRLRSDDTAVYYCARDGGYSDPLDYWGQGTMVTVSS
VL: DTVLTQSPATLSLSPGERATLSCRASEGLTSYMHWYQQKPGQAPRLLIYKASNLASGVPARFSGSGSGTDFTLTISSLEPEDFATYFCQQNWNDPWTFGGGTKVEIKR
B5: h1706-006 (antibody, human IgG1, kappa, V domains shown)
VH: EVQLVESGGGLVQPGGSLRLSCAASGFTFSHYYMAWVRQAPGKGLEWVSSINYEGNSAYYGDSVKGRFTISRDNSKNTLYLQMNSLRAEDTAVYYCATETLRESLDYWGQGTMVTVSS
VL: DIQMTQSPSSVSASVGDRVTITCRASQDIGNYLSWYQQKPGKSPKLLIYSASNLEVGVPSRFSGSGSGTDFTLTISSLQPEDFATYYCLQHKQFPRTFGGGTKVEIKR
B6: h1706-004 (antibody, human IgG1, kappa, V domains shown)
VH: B5 VH with S49T, V93T
VL: B5 VL with S43A
B7: h1706-007 (antibody, human IgG1, kappa, V domains shown)
VH: B5 VH with S49T, V93T
VL: B5 VL
B8: h1705-007 (antibody, human IgG1, kappa, V domains shown)
VH: B5 VH with N52S, N56D, S57I, A58T, T98S, E99Q, L105F, M113L
VL: B5 VL with G30A, S50G, A51T, G66R, H91D, Q93E
B9: h1706-003 (antibody, human IgG1, kappa, V domains shown)
VH: B5 VH
VL: B5 VL with S43A
B10: h1705-004 (antibody, human IgG1, kappa, V domains shown)
VH: B5 VH with N52S, N56D, S57I, A58T, T98S, E99Q, L105F, M113L
VL: B5 VL with G30A, S43A, S50G, A51T, H91D, Q93E
B11: h1705-005 (antibody, human IgG1, kappa, V domains shown)
VH: B5 VH with S49T, N52S, N56D, S57I, A58T, V93T, T98S, E99Q, L105F, M113L
VL: B5 VL with G30A, S43A, S50G, A51T, H91D, Q93E
B12: h1706-009 (antibody, human IgG1, kappa, V domains shown)
VH: B5 VH
VL: B5 VL with L47M, F71Y, Y87F
B13: h1705-010 (antibody, human IgG1, kappa, V domains shown)
VH: B5 VH with N52S, N56D, S57I, A58T, T98S, E99Q, L105F, M113L
VL: B5 VL with G30A, L47V, S50G, A51T, G66R, T69S, F71Y, Y87F, H91D, Q93E
B14: h1705-011 (antibody, human IgG1, kappa, V domains shown)
VH: B5 VH with S49T, N52S, N56D, S57I, A58T, V93T, T98S, E99Q, L105F, M113L
VL: B5 VL with G30A, L47V, S50G, A51T, G66R, T69S, F71Y, Y87F, H91D, Q93E
B15: h1705-008 (antibody, human IgG1, kappa, V domains shown)
VH: B5 VH with S49T, N52S, N56D, S57I, A58T, V93T, T98S, E99Q, L105F, M113L
VL: B5 VL with G30A, S50G, A51T, G66R, H91D, Q93E

biological target: T1, Human IL-5 amino acid sequence with his …; assay: cell-based or functional assay

IC50 of inhibition of IL-5-induced proliferation of TF1 cells | Binder
0.2 nM | B1
0.3 nM | B2
0.38 nM | B3
0.16 nM | B4
0.34 nM | B5
0.3 nM | B6
0.28 nM | B7
0.25 nM | B8
0.31 nM | B9
0.3 nM | B10
0.3 nM | B11
0.25 nM | B12
0.3 nM | B13
0.28 nM | B14
0.2 nM | B15

biological target: T1, Human IL-5 amino acid sequence with his …; assay: cell-based or functional assay; remark: another data set of the same source

IC50 of blocking IL-5-induced eosinophil adhesion | Binder
11.8 ng/mL | B2
21.2 ng/mL | B4
4.3 ng/mL | B12
4.85 ng/mL | B15

biological target: T1, Human IL-5 amino acid sequence with his …; assay: FACS blocking of biotin-IL-5 binding to IL-5Rα/β CHO-S cells
Protocol: Particular method: CHO-S-IL-5Rα and β were cultivated with CD-CHO containing […] and 25 ng/ml zeozin, and the concentration during cell culture was no more than 3×10⁶ cells/ml. The IL-5Rα/β-CHOS cells in good condition were centrifuged (1000 rpm, 5 min), washed once with 10% FBS in PBS, counted, the cell concentration was adjusted to 4×10⁶ cells/ml, and 25 μl of which was added to 96-well plate with round bottom. Antibodies to be tested were diluted with PBS solution containing 10% FBS, with an initial concentration of 200 μg/ml, and 8 gradients were obtained by 1:10 dilution. 25 μl of 100 ng/ml IL-5 labeled with Biotin Labeling Kit (Dojindo Chemical, LK03), was uniformly mixed with 50 μl of each diluted antibody, added into the 96-well plate to which the cells has been added, and incubated at 4° C. for 1 hour. After the incubation, centrifuged at 4° C. (400 g, 5 min), the supernatant was discarded, centrifuged and washed with 200 μl of pre-cooled PBS, repeat twice; PE-Avidin secondary antibody diluted at 1:1333 was added and incubated in darkness at […] for 40 min, the supernatant was discarded after being centrifuged at 4° C. […] The plate was read on instrument, and IC50 values for IL-5 antibodies to block the binding between IL-5 and IL-5Rα/β were calculated based on the fluorescence signal values.

IC50 | Binder
0.0496 µg/mL | B1

biological target: T1, Human IL-5 amino acid sequence with his …; assay: Biacore T200 SPR, antibody captured on Protein A chip, antigen in flow, 1:1 Langmuir fit
Protocol: The affinity between the test humanized IL-5 antibodies and human IL-5 was determined by using Biacore T200 (GE) instrument.
Molecules to be tested were affinity-captured by Protein A biosensor chip, and then the antigen (prepared in Example 1) was flowed through the surface of the chip, and the reaction signals were detected in real time by using Biacore T200 instrument to obtain binding and dissociation curves. After the dissociation of each cycle of experiment was completed, the biosensor chip was washed and regenerated with glycine-hydrochloric acid regeneration solution (pH 1.5). The data was fitted to the (1:1) Langmuir model by using BIAevaluation version 4.1 GE software, and the affinity values were obtained as shown in Table 14.

Kd | Binder
0.412 nM | B1
